Source: US20180346602A1

Key:
[1] = molecular target: anti-VEGF/ANG2 antibody (IgG1 subclass with mutations P329G/L234A/L235A/I253A/H310A/H435A) [IgG part: P01857]; experiment: sandwich ELISA assay A; capture M1.7.10-Bi; antibody 1 at 2 ng/mL
[2] = molecular target: anti-VEGF/ANG2 antibody (IgG1 subclass with mutations P329G/L234A/L235A) [IgG part: P01857]; experiment: sandwich ELISA assay A; capture M1.7.10-Bi; antibody 2 at 6 ng/mL
[3] = molecular target: anti-VEGF/ANG2 antibody (IgG1 subclass with mutations P329G/L234A/L235A) [IgG part: P01857]; experiment: sandwich ELISA assay E; tracer M1.7.10-Dig; analyte 2) at 25 ng/mL
[4] = molecular target: anti-VEGF/ANG2 antibody (IgG1 subclass with mutations P329G/L234A/L235A) [IgG part: P01857]; experiment: sandwich ELISA assay E; tracer M1.7.10-Dig; analyte 2) at 50 ng/mL
[5] = molecular target: anti-VEGF/ANG2 antibody (IgG1 subclass with mutations P329G/L234A/L235A/I253A/H310A/H435A) [IgG part: P01857]; experiment: sandwich ELISA assay E; tracer M1.7.10-Dig; analyte 1) at 12.5 ng/mL
[6] = molecular target: anti-VEGF/ANG2 antibody (IgG1 subclass with mutations P329G/L234A/L235A/I253A/H310A/H435A) [IgG part: P01857]; experiment: sandwich ELISA assay E; tracer M1.7.10-Dig; analyte 1) at 6.25 ng/mL
[7] = molecular target: anti-VEGF/ANG2 antibody (IgG1 subclass with mutations P329G/L234A/L235A/I253A/H310A/H435A) [IgG part: P01857]; experiment: sandwich ELISA assay E; tracer M1.7.10-Dig; analyte 1) at 0 ng/mL (blank)
[8] = molecular target: anti-IGF-1R antibody (IgG1 subclass with mutations I253A/H310A/H435A) (human) [IgG part: P01857]; experiment: sandwich ELISA assay C; capture on SA plate; tracer FcγRI-Dig; analyte 3 ng/mL
[9] = molecular target: anti-P-Selectin antibody (IgG4 subclass with mutations S228P/L235E) (human) [IgG part: P01861]; experiment: as above
[10] = molecular target: anti-VEGF/ANG2 antibody (IgG1 subclass with mutations P329G/L234A/L235A) (human) [IgG part: P01857]; experiment: as above
[11] = molecular target: anti-VEGF/ANG2 antibody (IgG1 subclass with mutations P329G/L234A/L235A/I253A/H310A/H435A) (human) [IgG part: P01857]; experiment: as above
[12] = molecular target: anti-Dig antibody (IgG1 subclass with mutations P329G/L234A/L235A) [IgG part: P01857]; experiment: sandwich ELISA assay D; tracer M1.7.10-Dig; analyte conc. not printed (row 5 of 8)
[13] = molecular target: anti-Dig antibody (IgG1 subclass with mutations P329G/L234A/L235A) [IgG part: P01857]; experiment: sandwich ELISA assay D; tracer M1.19.31-Dig; analyte conc. not printed (row 1 of 8)
[14] = molecular target: anti-Dig antibody (IgG1 subclass with mutations P329G/L234A/L235A) [IgG part: P01857]; experiment: sandwich ELISA assay D; tracer M1.19.31-Dig; analyte conc. not printed (row 6 of 8)
[15] = molecular target: anti-Dig antibody (IgG1 subclass with mutations P329G/L234A/L235A) [IgG part: P01857]; experiment: sandwich ELISA assay D; tracer M1.19.31-Dig; analyte conc. not printed (row 7 of 8)
[16] = molecular target: anti-Dig antibody (IgG1 subclass with mutations P329G/L234A/L235A) [IgG part: P01857]; experiment: sandwich ELISA assay D; tracer M1.19.31-Dig; analyte conc. not printed (row 8 of 8)
target antibodies [17] = experiment: depletion of target antibody from sample; concentration before depletion 3.00 µg/mL
target antibodies [18] = experiment: depletion of target antibody from sample; concentration before depletion 100.00 µg/mL
target antibodies [19] = experiment: depletion of target antibody from sample; concentration before depletion 1000.00 µg/mL
[20] = molecular target: anti-VEGF/ANG2 antibody (wild-type IgG1 subclass) (human) [IgG part: P01857]; experiment: sandwich ELISA assay C; capture on SA plate; tracer FcγRI-Dig; analyte 2 ng/mL
[21] = molecular target: anti-VEGF/ANG2 antibody (wild-type IgG1 subclass) (human) [IgG part: P01857]; experiment: sandwich ELISA assay B; capture on SA plate; tracer M1.7.10-Dig; analyte 2 ng/mL
[22] = molecular target: anti-VEGF/ANG2 antibody (wild-type IgG1 subclass) (human) [IgG part: P01857]; experiment: sandwich ELISA assay B; capture on SA plate; tracer M1.7.10-Dig; analyte 6 ng/mL
[23] = molecular target: anti-VEGF/ANG2 antibody (wild-type IgG1 subclass) (human) [IgG part: P01857]; experiment: sandwich ELISA assay C; capture on SA plate; tracer FcγRI-Dig; analyte 100 ng/mL
[24] = molecular target: anti-VEGF/ANG2 antibody (wild-type IgG1 subclass) (human) [IgG part: P01857]; experiment: sandwich ELISA assay B; capture on SA plate; tracer M1.7.10-Dig; analyte 13 ng/mL
[25] = molecular target: anti-VEGF/ANG2 antibody (wild-type IgG1 subclass) (human) [IgG part: P01857]; experiment: sandwich ELISA assay B; capture on SA plate; tracer M1.7.10-Dig; analyte 50 ng/mL

Binder	signal [OD405 nm] [1]	signal [OD405 nm] [2]	signal [OD405 nm] [3]	signal [OD405 nm] [4]	signal [OD405 nm] [5]	signal [OD405 nm] [6]	signal [OD405 nm] [7]	signal [OD405 nm] [8]	signal [OD405 nm] [9]	signal [OD405 nm] [10]	signal [OD405 nm] [11]	signal 10% cynomolgus serum [OD405 nm] [12]	signal 10% human serum [OD405 nm] [12]	signal buffer [OD405 nm] [12]	signal 10% cynomolgus serum [OD405 nm] [13]	signal 10% human serum [OD405 nm] [13]	signal buffer [OD405 nm] [13]	signal 10% cynomolgus serum [OD405 nm] [14]	signal 10% human serum [OD405 nm] [14]	signal buffer [OD405 nm] [14]	further results
anti-variant (human) Fc-region antibody M1.3.17 (antibody, V domains shown) VH: EVKLLESGGGLVQPGGSLKLSCAASGIDFRRYWMNWVRQAPGKGLEWIGEIDPDSSTINYTPSLKDKFIISRDNAKNTMYLQMRKVRSEDTALYYCARPYDYGAWFAYWGQGTLVTVSA VL: QAVVTQESALTTSPGETVTLTCRSTTGAVTTSNYANWVQEKPDHLFTGLIGGTNKRAPGVPARFSGSLIGDKAALTITGAQTEDEAIYFCALWYSDHWVFGGGTKLTVL	0.043 OD405 nm	1.99 OD405 nm	1.48 OD405 nm	1.89 OD405 nm	1.09 OD405 nm	0.677 OD405 nm	0.027 OD405 nm	1.21 OD405 nm	1.19 OD405 nm	1.22 OD405 nm	1.16 OD405 nm	0.096 OD405 nm	2.49 OD405 nm	0.031 OD405 nm	1.87 OD405 nm	2.58 OD405 nm	0.05 OD405 nm	0.082 OD405 nm	1.67 OD405 nm	0.033 OD405 nm	signal 10% cynomolgus serum [OD405 nm] [15]: 0.075 OD405 nm; signal 10% human serum [OD405 nm] [15]: 1.71 OD405 nm; signal buffer [OD405 nm] [15]: 0.033 OD405 nm; signal 10% cynomolgus serum [OD405 nm] [16]: 0.077 OD405 nm; signal 10% human serum [OD405 nm] [16]: 1.8 OD405 nm; signal buffer [OD405 nm] [16]: 0.036 OD405 nm; concentration after depletion (target antibodies [17]): 0.0023 µg/mL; recovery [%] (target antibodies [17]): 0.078%; concentration after depletion (target antibodies [18]): 0.0173 µg/mL; recovery [%] (target antibodies [18]): 0.017%; concentration after depletion (target antibodies [19]): 0.0169 µg/mL; recovery [%] (target antibodies [19]): 0.002%
anti-AAA variant Fc-region antibody M1.6.22 (antibody, V domains shown) VH: EVQLVESGGDLVKPGGSLKLSCAASGFTFSSYGMSWVRQTPDKRLEWVATISSGGSYIYYPDSVKGRFTISRDNAKNTLYLQMSSLKSEDTAMYYCARLGMITTGYAMDYWGQGTSVTVSS VL: DVLMTQTPLSLPVSLGDQASISCRSSQTIVHSTGHTYLEWFLQKPGQSPKLLIYKVSNRFSGVPDRFSGSGSGTDFTLKISRVEAEDLGVYYCFQGSHVPYTFGGGTKLEIK	0.055 OD405 nm	0.044 OD405 nm						0.083 OD405 nm	0.05 OD405 nm	0.068 OD405 nm	0.066 OD405 nm										signal [OD405 nm] [20]: 0.077 OD405 nm; signal [OD405 nm] [21]: 0.036 OD405 nm; signal [OD405 nm] [22]: 0.039 OD405 nm; signal [OD405 nm] [23]: 0.076 OD405 nm; signal [OD405 nm] [24]: 0.046 OD405 nm; signal [OD405 nm] [25]: 0.049 OD405 nm; concentration after depletion (target antibodies [17]): 0.0023 µg/mL; recovery [%] (target antibodies [17]): 0.008%; concentration after depletion (target antibodies [18]): 0.0143 µg/mL; recovery [%] (target antibodies [18]): 0.014%; concentration after depletion (target antibodies [19]): 0.0163 µg/mL; recovery [%] (target antibodies [19]): 0.002%
anti-variant (human) Fc-region antibody M1.7.24 (antibody, V domains shown) VH: EVKLLESGGGLVQPGGSLKLSCAASGFDFSRYWMNWVRQAPGKGLEWIGEITPDSSTINYTPSLKDKFIISRDNAKNTLYLQMIKVRSEDTALYYCVRPYDYGAWFASWGQGTLVTVSA VL: QAVVTQESALTTSPGETVTLTCRSSTGAVTTSNYANWVQEKPDHLFTGLIGGTNKRAPGVPARFSGSLIGDKAALTITGAQTEDEAIYFCALWYSNHWVFGGGTKLTVL	0.042 OD405 nm	2.24 OD405 nm	1.39 OD405 nm	1.8 OD405 nm	1.06 OD405 nm	0.64 OD405 nm	0.025 OD405 nm	0.077 OD405 nm	0.053 OD405 nm	0.057 OD405 nm	0.094 OD405 nm	0.094 OD405 nm	2.41 OD405 nm	0.031 OD405 nm	2.25 OD405 nm	2.5 OD405 nm	0.054 OD405 nm	0.049 OD405 nm	1.36 OD405 nm	0.033 OD405 nm	signal [OD405 nm] [20]: 0.058 OD405 nm; signal [OD405 nm] [21]: 0.034 OD405 nm; signal [OD405 nm] [22]: 0.038 OD405 nm; signal [OD405 nm] [23]: 0.073 OD405 nm; signal [OD405 nm] [24]: 0.04 OD405 nm; signal [OD405 nm] [25]: 0.04 OD405 nm; signal 10% cynomolgus serum [OD405 nm] [15]: 0.039 OD405 nm; signal 10% human serum [OD405 nm] [15]: 1.39 OD405 nm; signal buffer [OD405 nm] [15]: 0.033 OD405 nm; signal 10% cynomolgus serum [OD405 nm] [16]: 0.035 OD405 nm; signal 10% human serum [OD405 nm] [16]: 1.42 OD405 nm; signal buffer [OD405 nm] [16]: 0.033 OD405 nm
